This passage reports amyloid nucleation score results from the supplement of paper PMC12042874.

± gives the uncertainty stated by the source.

This data set is described as follows: amyloid nucleation score (Sup35N fusion, yeast selection) (log enrichment); library NNK1; higher = more nucleation; inactive = no reads after selection. A digest of the protocol: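 The nucleation score equals the log enrichment of output over input reads from DiMSum, centred on the mode score of non-aggregating sequences. It was computed only for sequences with 100 or more input reads. The reads came from Illumina sequencing of plasmid inserts from psi-negative yeast expressing Sup35N fused to peptides of 20 random codons, induced with 100 μM copper sulfate for 24 hours and grown 7 days at 30°C without adenine and uracil.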

For the substance QYSCN, the amyloid nucleation score is 1.72 ± 0.46.
In the case of LNHRGGLVDGFMAAGPRKFR it was -0.793 ± 1; in that of YNSRRCNIHFNFIGKC, 6.783 ± 0.054.
In the case of YDHGRWDSTVSGLRDVMLDV it was “inactive”; in that of TYTGFYCVRKLILVRRVSVW, -0.897 ± 1.6; in that of PMHSLTASYNDSHFRNRGVM, “inactive”.
QKWNMFVSSWVYDRRRTRGC gave an amyloid nucleation score of 0.301 ± 1.1.
In the case of KWTLTRLYVACRYNDHSRLS it was 1.07 ± 0.39; in that of CFRDGYSKLCGCYVSMRTGH, 0.459 ± 0.53.
Consider IVNFRVNRPSL, for which the amyloid nucleation score came to 0.205 ± 0.31.
In the case of ITDCPCRGISVCVV it was -0.288 ± 0.26.
In the case of GLTKYV it was -0.462 ± 0.28; in that of GLRTLEPYRYVIIMVPGQVA, -0.164 ± 0.68; in that of SIYHYCRDIRDCRMSRLELG, 0.572 ± 0.33.
In the case of GIVGGDQYMLFNLYVGFSYP it was 1.45 ± 0.15; in that of SFVVHVICGHVCSWSFSVWF, 0.178 ± 0.33; in that of QTDLLYSIYRSKDNSGLNLV, 0.75 ± 0.56.
On to LIVNRSKFLT, for which the amyloid nucleation score worked out at 0.625 ± 0.36.
Take RSRLPGCDFVPLYEVH: the amyloid nucleation score was -0.472 ± 0.44.
For the substance EIQGNLNILSLLGLSRRSKG, the amyloid nucleation score was 0.016 ± 0.72.
On to EFVLGGASRVELY, for which the amyloid nucleation score is -0.624 ± 0.64.
Substance LEHHCAHCIGEVTINIKRFP showed an amyloid nucleation score of 0.306 ± 0.41.
Substance SISVNTFLRPQLRWM showed an amyloid nucleation score of 6.509 ± 0.061.
For the substance IDSVQFTLQTASHPRSDDDC, the amyloid nucleation score is -0.143 ± 0.58.
In turn, QPLSLCLVFDCTNISFSFQA displayed an amyloid nucleation score of 8.594 ± 0.045.
In the case of ATLHGFLLKICLADVLAYLV it was 0.476 ± 0.42; in that of CVSFMVTFTIMRQLYNCKCR, 3.91 ± 0.077; in that of ALSSVNFFQLL, 4.45 ± 0.12.
Turning to GYSCRVIWNTNWTALFT, the amyloid nucleation score entry was “inactive”.
Turning to FLILVSLGELGVTAI, the amyloid nucleation score entry is “inactive”.
Regarding GIYNLHQFTCLFEAAAIACD, the amyloid nucleation score is -0.478 ± 0.79.
HSMVFNLEWFKARQDGDLN had an amyloid nucleation score of 1.5 ± 0.34.
In the case of DYCRLMAWLSL it was 0.315 ± 0.51; in that of FKLVI, 0.697 ± 0.9.
In the case of ASRIHYWWS it was 0.787 ± 0.25; in that of DSCLSYFAILYFRLGFTRMW, “inactive”; in that of RSDWFHMCNNT, 2.38 ± 0.089.
The substance RASTNLRSEIDVNNRGWLRW returned an amyloid nucleation score of 1.32 ± 0.42.
Substance DWHGLTKVMITW returned an amyloid nucleation score of 3.31 ± 0.11.
DCEGLFI gave an amyloid nucleation score of 0.864 ± 0.74.
In the case of AIAGSAMVEGAH it was 0.985 ± 0.77; in that of WREGDI, -0.294 ± 1.2; in that of CDINLRKDTGISHLNGLFNA, 0.755 ± 0.43.
On to PYRYKSGWATTQSLRREQLD, for which the amyloid nucleation score was -0.743 ± 1.3.
Regarding MFSSVLIWKY, the amyloid nucleation score was 1.12 ± 0.56.
In the case of ARYYIVREGSEKCDLLTGRG it was 0.004 ± 0.61; in that of FICERPGSRKTTLPTVTVIR, -0.499 ± 0.98.
For WSTFYLFLSLDWKNYT, the amyloid nucleation score entry was “inactive”.
In the case of NSWQLFYLCSQLIRKSSTLC it was 0.029 ± 0.37; in that of VCVQILAASTWM, 0.844 ± 0.42.
CVLFAYFNALF returned an amyloid nucleation score of 1.3 ± 0.57.
In the case of ICVLKKFLVSIQSVIY it was 1.46 ± 0.74; in that of RISLVPRDASPESSTKSSSI, “inactive”; in that of VKLDIVFLMVFGPLCSESPF, 1.83 ± 0.24.
In the case of VWARVMNAYFDTSH it was -1.22 ± 2.4.
LAWLFYGFEIKL returned an amyloid nucleation score of 0.241 ± 0.9.
Turning to TSAVSSCDFRKRWCCSSFHW, the amyloid nucleation score came out at 0.665 ± 0.24.
